The nature of this experiment: High throughput electrophysiology in HEK293T cells, AZD-0328. It counts as cell-based. The conditions noted are these: HEK293T cells, held at −60 mV. As to the method:
To confirm the EC50s determined by plate reader as well as develop a better understanding of maximum current flow, the engineered receptors were subjected to high throughput electrophysiology system, as described below. For HEK293T studies, cDNAs encoding ion channels were cloned into pcDNA3.1 using standard recombination techniques. HEK293T cells from Clontech (Lenti-X™ 293T Cell Line) were cultured in DMEM supplemented with 10% FBS and 1% Pen/Strep to 40-50% confluence using standard cell culture protocols, transfected with ion channel plasmids at a concentration of 18 μg per 15 cm dish using Fugene 6, and grown for an additional 24 hours. Cells were then assayed on a electrophysiological system (IonFluxHT and/or Mercury, Fluxion Biosciences) in which dose-response relationships may be assessed through a microfluidics-based platform for establishing whole cell configurations. Ensemble plates were primed with extracellular buffer (140 mM NaCl, 5 mM KCl, 2 mM CaCl2), 1 mM MgCl2, 10 mM HEPES, and 10 mM glucose, pH 7.2 with NaOH, mOsm 310), intracellular buffer (145 mM CsCl, 2 mM CaCl2, 2 mM MgCl2, 10 mM HEPES, and 10 mM EGTA, pH 7.2 with CsOH, mOsm 305), as adapted from Lynagh and Lynch, and test compounds (stocks prepared fresh) diluted in extracellular buffer. Cells were then released from the plate with Accutase, centrifuged, resuspended in extracellular buffer, and loaded into Ensemble plates. Cells were then subjected to a standard protocol for priming, trapping, breaking, and establishing whole cell configuration, with cells held at −60 mV throughout the recording. After recording baseline, progressive doses of test compounds were applied using the IonFlux software to assess dose response relationships. Data were then analyzed off-line using custom Python scripts to convert data to .csv format, re-plot traces, and apply QC measurements to reject unstable recordings (i.e. thresholding based on access resistance and/or standard deviation in baseline, as well as artifact rejection). Peak currents were then calculated and population data were fit using a 4-parameter logistic equation as described by the Hill Equation. Currents were measured on an automated patch clamp system (Fluxion Biosciences) following 1 second addition of drug and the EC50 values calculated are tabulated below in Table 13.

Consider two molecules from patent US20220348635A1, “COMPOSITIONS AND METHODS FOR NEUROLOGICAL DISEASES” (Coda Biotherapeutics, Inc., priority 2019, published 2022).

B1: Y115D in SEQ ID NO: 33: SEQ ID NO: 33 chimeric receptor with single substitution Y115D (protein)
chain: MRCSPGGVWLALAASLLHVSLQGEFQRKLYKELVKNYNPLERPVANDSQPLTVYFSLSLLQIMDVDEKNQVLTTNIWLQMSWTDHYLQWNVSEYPGVKTVRFPDGQIWKPDILLDNSADERFDATFHTNVLVNSSGHCQYLPPGIFKSSCPMDLKNFPMDVQTCKLKFGSWSYGGWSLDLQMQEADISGYIPNGEWDLVGIPGKRSERFYECCKEPYPDVTFTVTMRRRMGYYLIQMYIPSLLIVILSWISFWINMDAAPARVGLGITTVLTMTTQSSGSRASLPKVSYVKAIDIWMAVCLLFVFSALLEYAAVNFVSRQHKELLRFRRKRRHHKSPMLNLFQEDEAGEGRFNFSAYGMGPACLQAKDGISVKGANNSNTTNPPPAPSKSPEEMRKLFIQRAKKIDKISRIGFPMAFLIFNMFYWIIYKIVRREDVHNQ
modifications: synthetic sequence of chimeric LGIC
Regarding B1, the “EC50 AZD-0328” value was “no activity”.

B2: Y115E in SEQ ID NO: 33: SEQ ID NO: 33 chimeric receptor with single substitution Y115E (protein)
chain: MRCSPGGVWLALAASLLHVSLQGEFQRKLYKELVKNYNPLERPVANDSQPLTVYFSLSLLQIMDVDEKNQVLTTNIWLQMSWTDHYLQWNVSEYPGVKTVRFPDGQIWKPDILLENSADERFDATFHTNVLVNSSGHCQYLPPGIFKSSCPMDLKNFPMDVQTCKLKFGSWSYGGWSLDLQMQEADISGYIPNGEWDLVGIPGKRSERFYECCKEPYPDVTFTVTMRRRMGYYLIQMYIPSLLIVILSWISFWINMDAAPARVGLGITTVLTMTTQSSGSRASLPKVSYVKAIDIWMAVCLLFVFSALLEYAAVNFVSRQHKELLRFRRKRRHHKSPMLNLFQEDEAGEGRFNFSAYGMGPACLQAKDGISVKGANNSNTTNPPPAPSKSPEEMRKLFIQRAKKIDKISRIGFPMAFLIFNMFYWIIYKIVRREDVHNQ
modifications: synthetic sequence of chimeric LGIC
For B2, the “EC50 AZD-0328” value is given as “no activity”.
